This note sets out measurements from paper PMC3121763.

The target of data set [1] is 6xHis-tagged Gifsy-1 prophage repressor GfoR (Salmonella enterica serovar Typhimurium strain ATCC14028, prophage Gifsy-1). In words: SEC; Sephadex G75 column in IPE buffer (Tris-HCl 20 mM pH 8, NaCl 500 mM, Igepal 0.1%, imidazole 250 mM); about 10 ug of Ni-NTA-purified repressor (cells grown without arabinose) or co-expressed, co-purified repressor-antirepressor complex (with arabinose); calibrated with alpha-chymotrypsin, ovalbumin and BSA; fractions on SDS gel. In general terms: Size exclusion chromatography separates by hydrodynamic size, large species first.

Data set [2] concerns T1, GtgR (Gifsy-2 phage repressor; also written GftR) (Salmonella enterica ATCC14028, Gifsy-2 prophage), ORF:1b72f8f1.
T1 sequence: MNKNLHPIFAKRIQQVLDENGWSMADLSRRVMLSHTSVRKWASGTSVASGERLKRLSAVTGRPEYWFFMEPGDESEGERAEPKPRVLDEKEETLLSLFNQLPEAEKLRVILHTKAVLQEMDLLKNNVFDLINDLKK
In words: EMSA. The following applies: 20 mM Tris-HCl pH 7.5, 50 mM NaCl, 0.2 mM EDTA (5x stock in Methods: 1 mM), 1 mM MgCl2, 5% glycerol, PMSF, 50 ug/mL sonicated salmon sperm DNA; room …. For orientation: In EMSA bound probe runs differently from free probe, usually more slowly.

On to “3xFLAG-tagged Gifsy-1 antirepressor GfoA (natural protein)”, for which the stoichiometry N (GfoA per GfoR (2:2)) in data set [1] was 1.
A word on the stoichiometry N: it is a count of units in the complex or per binding partner. “6xHis-tagged Gifsy-1 prophage repressor GfoR (natural protein)”: the stoichiometry N in data set [1] is 2.
Take “GTTCGCCGATGCTCATTTGAGTCATGTGGTTACTGATTTTGATTTTTAATTGGTTGTCCATTTGGCTCTCCAGTTCTACGAGTTGGTAGCTGGAGATTATCACGTAAAACTTTAGGTTCCAACAAAAATCAATCTAATAGTTCCAATGAATAAAGAAACTGAAGGTTGTAAAATGTGAATATGAACAAAAATCTTCATCCCATTTTCGCCAAGCGTATCCAGCAAGTTCTGGATGAGAACGGCTGGTCTATGGCTGACCTCTCACGG (double strand) [Gifsy-2 right operator fragment (267 bp)]”: the binding entry in data set [2] is “binds”.
